Measured values: patent US8221990B2, “Screening GPR12 receptor for substances having Nesfatin-1-like action, or which regulate Nesfatin-1 action” (Teijin Pharma Limited, priority 2007, dated 2012)

Legend:
[1] = Amount of food intake in a mouse after intraperitoneal administration; format: in vivo; conditions: C57BL/6J male mouse, 0.25 nmol per gram of body weight, 0 to 3 hours
Method: A 7-week-old C57BL/6J strain male mouse (CLEA Japan, Inc.) was used as an experimental animal. After purchasing the mouse, the mouse was raised at 22° C. in cycles of the 12-hour light period from 6 a.m. to 6 p.m. and the 12-hour dark period from 6 p.m. to 6 a.m. on the next morning with free access to pelleted feed (CLEA Japan, Inc., CE-2).
A 5 nmol aliquot of Nesfatin-1M30 (Mid-segment, SEQ ID NO: 11), M30_Ag-A (SEQ ID NO: 50), or M30_MSH-A (SEQ ID NO: 51) was dissolved in each 100 μL of saline, and each of the resultant solutions was administered intraperitoneally to a C57BL/6J mouse at a dose of 0.25 nmol per gram of body weight of the mouse. In the control group, only saline (Vehicle) was administered. Each mouse (5 mice in each group) was intraperitoneally given a single injection of a sample using a tuberculin syringe with 26 G needle, immediately before the dark period (6 p.m.).
Each mouse administered was placed in an individual cage, and the amount of food intake was determined by measuring the decreased amount of the pelleted feed during the period from 0 to 3 hours after the administration of a test substance. In the mouse administered with each test sample, the amount of food intake during 3 hours after the administration (g/3 h) is shown in FIG. 6.

mGPR12 = target: T1, mGPR12 (Mus musculus, UniProt P35412); test: CREB phosphorylation in CHO-K1-cell stable expression system (western blotting); format: cell-based; set-up: expressed in transfected cells; conditions: CHO-K1-mGPR12 cells
T1 sequence (P35412 1-334): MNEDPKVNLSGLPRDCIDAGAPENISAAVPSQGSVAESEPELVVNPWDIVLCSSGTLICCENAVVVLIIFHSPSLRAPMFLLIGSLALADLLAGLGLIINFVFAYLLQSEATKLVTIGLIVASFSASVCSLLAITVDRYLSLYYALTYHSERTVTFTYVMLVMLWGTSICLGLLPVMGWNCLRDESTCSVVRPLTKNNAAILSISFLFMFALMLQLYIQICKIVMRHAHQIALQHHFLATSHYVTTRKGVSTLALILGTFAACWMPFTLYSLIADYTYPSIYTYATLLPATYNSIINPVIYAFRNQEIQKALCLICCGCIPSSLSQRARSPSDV
Method: Using Nesfatin-1M30 (Mid-segment) as a test substance, the method for bringing the test substance into contact with cells was conducted as follows. The confluent CHO-K1 cells and CHO-K1-mGPR12 cells were recovered in 10-cm dishes, plated onto 10-cm dishes by dividing the cell colony in four quarters, and cultured for 2 days in Ham's F12 medium (as for CHO-K1-mGPR12, 700 μg/mL of Geneticin® was contained). After removing the medium, the resultant cultured cells were washed once with the medium containing no Geneticin®, and then Ham's F12 medium containing 10^−9 M of Nesfatin-1M30 (Mid-segment) peptide was added to the cells. […] SDS-gel electrophoresis was conducted by using the protein extracts from each cells; and then the protein was transcribed into Amersham hybond-P[…] (GE Healthcare); and using anti-phosphorylation CREB antibody (Cell Signaling Technology, Inc., Catalog No. #9191) for detecting the phosphorylated CREB, the phosphorylated CREB was detected with an ECL plus western blotting detection reagents (GE Healthcare) kit, in accordance with the attached protocol. […]
Further, the concentration dependence was examined by using Nesfatin-1M30 (Mid-segment: SEQ ID NO: 11). […] Subsequently, cellular proteins were extracted, and the phosphorylated CREB (p-CREB) was detected by a western blotting method.

In the case of “Nesfatin-1M30: mid-segment of Nesfatin-1, human-derived Nesfatin-1M30, SEQ ID NO: 11 (PDTGLYYDEYLKQVIDVLETDKHFREKLQK; listed as Homo sapiens)”, the “amount of food intake during 3 hours after the administration compared with control group (Vehicle)” value [1] was “significant decrease of the food intake”, the “phosphorylation of CREB (p-CREB band), time course” value (mGPR12; 10^-9 M, 15 minutes or later after contact) was “phosphorylation of CREB was induced” and the “phosphorylation of CREB, concentration dependence” value (mGPR12; 10^-12 M to 10^-9 M, 15 minutes) was “enhanced depending on the M30 peptide concentration”.
